# pKd: −log10 of the molar value.
# Columns and labels:
# [1] = molecular target: full-length HIV-1 gp120 from the clade B YU2 strain (HIV-1 (clade B, strain YU2)) (UniProt P35961); assay: SPR
# [2] = molecular target: CD4-mimetic miniprotein M48U1; assay: SPR
Substance,pKd [1],koff [1] [s⁻¹],kon [1] [M⁻¹ s⁻¹],pKd [2]
CD4-mimetic miniprotein M48U1 (designed binder),10.81,–,–,–
CD4-mimetic miniprotein M48U7 (designed binder),9.74,0.000446,2.42e+06,–
full-length HIV-1 gp120 from the clade B YU2 strain (from UniProt P35961 32-498) (natural protein),–,–,–,10.85

# Reference: publication PMC4140785
